Assay results taken from patent US20170355766A1 (Xencor, published 2017).
Where a chain is given by its changes, count along the chain named. Numbers in names are those of the source.

T1: FcγRIIaR (human, UniProt P12318)
T1 construct: recombinant receptor protein with 6xHis and GST tags; also called R131 FcγRIIa
T1 sequence (receptor, looked up): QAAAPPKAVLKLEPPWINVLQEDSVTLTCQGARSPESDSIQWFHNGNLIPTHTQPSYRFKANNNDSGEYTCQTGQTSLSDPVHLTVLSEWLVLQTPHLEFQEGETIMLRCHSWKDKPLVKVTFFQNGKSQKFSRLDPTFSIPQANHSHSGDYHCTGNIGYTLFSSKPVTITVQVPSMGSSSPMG

T2: human FcγRIIb receptor protein (R&D Systems) (human, UniProt P31994 46-217)
T2 construct: Analyte injected over antibodies captured on a protein A/G chip (Biacore); also called CD32b
T2 sequence (looked up): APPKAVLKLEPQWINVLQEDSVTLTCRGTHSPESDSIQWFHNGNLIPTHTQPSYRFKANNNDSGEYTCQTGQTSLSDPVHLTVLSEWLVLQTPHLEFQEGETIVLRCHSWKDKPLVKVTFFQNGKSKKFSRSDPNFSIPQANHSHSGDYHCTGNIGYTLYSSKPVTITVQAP

B1: A327G (antibody, human IgG1, kappa)
heavy: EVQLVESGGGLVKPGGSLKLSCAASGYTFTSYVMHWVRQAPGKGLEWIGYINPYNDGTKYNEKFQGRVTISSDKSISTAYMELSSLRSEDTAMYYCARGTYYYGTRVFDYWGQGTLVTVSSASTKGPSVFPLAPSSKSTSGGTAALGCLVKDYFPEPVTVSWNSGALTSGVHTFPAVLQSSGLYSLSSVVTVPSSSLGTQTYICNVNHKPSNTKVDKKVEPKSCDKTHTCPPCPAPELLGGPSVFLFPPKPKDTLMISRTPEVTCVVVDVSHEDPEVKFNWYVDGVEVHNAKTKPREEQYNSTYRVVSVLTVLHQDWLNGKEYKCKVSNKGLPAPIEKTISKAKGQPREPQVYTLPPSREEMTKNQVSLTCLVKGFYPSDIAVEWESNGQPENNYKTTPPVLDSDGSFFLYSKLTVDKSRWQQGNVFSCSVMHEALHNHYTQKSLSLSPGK
light: DIVMTQSPATLSLSPGERATLSCRSSKSLQNVNGNTYLYWFQQKPGQSPQLLIYRMSNLNSGVPDRFSGSGSGTEFTLTISSLEPEDFAVYYCMQHLEYPITFGAGTKLEIKRTVAAPSVFIFPPSDEQLKSGTASVVCLLNNFYPREAKVQWKVDNALQSGNSQESVTEQDSKDSTYSLSSTLTLSKADYEKHKVYACEVTHQGLSSPVTKSFNRGEC
notes: HuAM4G7 IgG1 Fc variant
B2: L235N (antibody, human IgG1, kappa)
heavy: not shown
light: B1 light
notes: HuAM4G7 IgG1 Fc variant
B3: G236Q (antibody, human IgG1, kappa)
heavy: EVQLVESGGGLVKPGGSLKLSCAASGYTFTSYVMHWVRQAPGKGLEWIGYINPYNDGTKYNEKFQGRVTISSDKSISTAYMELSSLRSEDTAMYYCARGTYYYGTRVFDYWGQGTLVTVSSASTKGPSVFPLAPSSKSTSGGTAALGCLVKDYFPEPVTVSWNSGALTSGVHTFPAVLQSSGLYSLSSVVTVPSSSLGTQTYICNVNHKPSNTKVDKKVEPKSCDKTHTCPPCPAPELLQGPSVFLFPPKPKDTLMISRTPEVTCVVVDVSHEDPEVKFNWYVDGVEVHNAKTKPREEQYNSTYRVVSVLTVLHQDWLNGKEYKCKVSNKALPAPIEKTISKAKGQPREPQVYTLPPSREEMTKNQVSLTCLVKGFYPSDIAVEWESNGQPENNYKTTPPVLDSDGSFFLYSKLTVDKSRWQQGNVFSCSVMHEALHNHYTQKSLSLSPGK
light: B1 light
notes: HuAM4G7 IgG1 Fc variant
B4: H268Q (antibody, human IgG1, kappa)
heavy: not shown
light: B1 light
notes: HuAM4G7 IgG1 Fc variant
B5: H268N (antibody, human IgG1, kappa)
heavy: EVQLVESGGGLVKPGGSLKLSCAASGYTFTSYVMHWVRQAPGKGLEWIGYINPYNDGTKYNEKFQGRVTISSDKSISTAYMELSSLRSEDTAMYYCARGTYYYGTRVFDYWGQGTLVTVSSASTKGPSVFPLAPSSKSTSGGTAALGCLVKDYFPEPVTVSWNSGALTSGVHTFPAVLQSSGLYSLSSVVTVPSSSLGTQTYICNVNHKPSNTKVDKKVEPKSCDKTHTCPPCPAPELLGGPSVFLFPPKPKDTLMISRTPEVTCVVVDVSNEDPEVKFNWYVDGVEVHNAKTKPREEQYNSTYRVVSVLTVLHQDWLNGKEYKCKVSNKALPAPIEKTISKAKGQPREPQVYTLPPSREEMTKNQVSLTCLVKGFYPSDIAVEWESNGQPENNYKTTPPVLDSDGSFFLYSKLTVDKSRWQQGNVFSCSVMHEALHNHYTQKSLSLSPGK
light: B1 light
notes: HuAM4G7 IgG1 Fc variant
B6: G236P (antibody, human IgG1, kappa)
heavy: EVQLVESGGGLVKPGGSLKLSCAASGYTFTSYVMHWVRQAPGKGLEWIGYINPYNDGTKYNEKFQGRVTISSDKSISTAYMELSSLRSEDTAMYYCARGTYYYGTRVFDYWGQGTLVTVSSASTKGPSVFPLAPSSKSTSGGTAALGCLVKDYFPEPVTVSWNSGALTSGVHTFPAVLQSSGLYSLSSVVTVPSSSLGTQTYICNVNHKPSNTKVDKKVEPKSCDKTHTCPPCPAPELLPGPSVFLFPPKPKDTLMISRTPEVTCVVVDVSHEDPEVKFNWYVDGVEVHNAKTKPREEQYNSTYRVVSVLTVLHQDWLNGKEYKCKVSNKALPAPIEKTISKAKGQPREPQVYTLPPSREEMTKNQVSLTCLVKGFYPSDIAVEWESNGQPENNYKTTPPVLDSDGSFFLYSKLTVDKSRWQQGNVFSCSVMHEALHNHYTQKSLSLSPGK
light: B1 light
notes: HuAM4G7 IgG1 Fc variant
B7: D265E (antibody, human IgG1, kappa)
heavy: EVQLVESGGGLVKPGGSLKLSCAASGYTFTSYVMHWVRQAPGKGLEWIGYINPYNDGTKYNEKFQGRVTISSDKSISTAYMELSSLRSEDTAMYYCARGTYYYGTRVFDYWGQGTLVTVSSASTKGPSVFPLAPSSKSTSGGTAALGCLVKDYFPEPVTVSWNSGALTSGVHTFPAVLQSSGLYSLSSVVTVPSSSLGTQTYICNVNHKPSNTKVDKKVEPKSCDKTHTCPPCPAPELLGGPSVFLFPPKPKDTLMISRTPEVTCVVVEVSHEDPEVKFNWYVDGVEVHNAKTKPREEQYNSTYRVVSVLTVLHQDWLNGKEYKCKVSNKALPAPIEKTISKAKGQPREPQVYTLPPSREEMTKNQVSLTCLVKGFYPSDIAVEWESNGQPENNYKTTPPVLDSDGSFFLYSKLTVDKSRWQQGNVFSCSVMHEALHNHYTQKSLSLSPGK
light: B1 light
notes: HuAM4G7 IgG1 Fc variant
B8: G236V (antibody, human IgG1, kappa)
heavy: not shown
light: B1 light
notes: HuAM4G7 IgG1 Fc variant
B9: G236M (antibody, human IgG1, kappa)
heavy: not shown
light: B1 light
notes: HuAM4G7 IgG1 Fc variant
B10: G236E/S267E (antibody, human IgG1, kappa)
heavy: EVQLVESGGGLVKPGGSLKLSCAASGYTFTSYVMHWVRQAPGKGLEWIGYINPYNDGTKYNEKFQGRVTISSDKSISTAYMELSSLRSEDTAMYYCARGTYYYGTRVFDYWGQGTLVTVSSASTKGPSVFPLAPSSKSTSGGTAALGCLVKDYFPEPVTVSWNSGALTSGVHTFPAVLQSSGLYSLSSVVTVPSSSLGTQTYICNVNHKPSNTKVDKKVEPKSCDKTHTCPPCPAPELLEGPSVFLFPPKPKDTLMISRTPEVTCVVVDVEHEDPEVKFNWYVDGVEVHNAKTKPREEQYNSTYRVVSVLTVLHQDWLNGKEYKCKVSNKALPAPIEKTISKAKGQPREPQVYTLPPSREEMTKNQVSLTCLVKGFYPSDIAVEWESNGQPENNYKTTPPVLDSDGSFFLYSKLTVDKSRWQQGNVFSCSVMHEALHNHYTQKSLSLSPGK
light: B1 light
notes: HuAM4G7 IgG1 Fc variant
B11: G237Q (antibody, human IgG1, kappa)
heavy: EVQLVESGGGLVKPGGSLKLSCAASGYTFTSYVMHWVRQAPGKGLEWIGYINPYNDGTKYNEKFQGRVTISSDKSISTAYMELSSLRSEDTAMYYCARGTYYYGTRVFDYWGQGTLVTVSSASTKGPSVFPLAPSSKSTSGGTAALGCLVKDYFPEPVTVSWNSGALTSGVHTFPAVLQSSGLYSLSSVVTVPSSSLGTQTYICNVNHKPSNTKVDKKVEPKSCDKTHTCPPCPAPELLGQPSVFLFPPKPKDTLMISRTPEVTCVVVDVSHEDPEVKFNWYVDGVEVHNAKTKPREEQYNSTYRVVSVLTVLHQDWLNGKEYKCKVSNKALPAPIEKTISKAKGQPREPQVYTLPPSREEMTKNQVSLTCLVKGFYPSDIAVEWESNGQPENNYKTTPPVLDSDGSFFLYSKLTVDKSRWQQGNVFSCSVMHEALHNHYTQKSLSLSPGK
light: B1 light
notes: HuAM4G7 IgG1 Fc variant
B12: G237S (antibody, human IgG1, kappa)
heavy: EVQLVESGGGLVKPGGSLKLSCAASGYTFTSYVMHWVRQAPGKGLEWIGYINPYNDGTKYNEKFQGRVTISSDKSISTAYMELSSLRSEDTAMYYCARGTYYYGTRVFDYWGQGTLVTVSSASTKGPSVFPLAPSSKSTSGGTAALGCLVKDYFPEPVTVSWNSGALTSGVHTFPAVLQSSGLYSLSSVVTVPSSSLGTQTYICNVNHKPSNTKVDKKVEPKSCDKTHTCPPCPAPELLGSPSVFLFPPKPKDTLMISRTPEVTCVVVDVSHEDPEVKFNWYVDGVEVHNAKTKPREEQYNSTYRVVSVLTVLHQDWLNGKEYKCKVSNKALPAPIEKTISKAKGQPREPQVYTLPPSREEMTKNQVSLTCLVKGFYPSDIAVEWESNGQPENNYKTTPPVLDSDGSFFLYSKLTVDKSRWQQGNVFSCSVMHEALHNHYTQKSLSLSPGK
light: B1 light
notes: HuAM4G7 IgG1 Fc variant
B13: G237V (antibody, human IgG1, kappa)
heavy: not shown
light: B1 light
notes: HuAM4G7 IgG1 Fc variant
B14: A327Q (antibody, human IgG1, kappa)
heavy: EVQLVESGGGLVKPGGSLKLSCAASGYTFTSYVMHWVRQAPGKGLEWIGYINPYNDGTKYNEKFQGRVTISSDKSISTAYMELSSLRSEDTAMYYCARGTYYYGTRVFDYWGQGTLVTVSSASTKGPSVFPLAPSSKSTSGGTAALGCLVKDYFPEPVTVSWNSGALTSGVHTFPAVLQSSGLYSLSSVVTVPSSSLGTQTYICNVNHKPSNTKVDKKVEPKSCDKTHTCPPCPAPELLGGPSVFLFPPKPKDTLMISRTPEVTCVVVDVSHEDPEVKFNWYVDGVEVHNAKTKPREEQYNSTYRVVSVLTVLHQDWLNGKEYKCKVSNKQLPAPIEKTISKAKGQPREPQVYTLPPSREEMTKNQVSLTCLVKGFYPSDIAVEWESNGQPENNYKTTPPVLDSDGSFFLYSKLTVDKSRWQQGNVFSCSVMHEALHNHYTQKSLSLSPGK
light: B1 light
notes: HuAM4G7 IgG1 Fc variant
B15: L235Q (antibody, human IgG1, kappa)
heavy: not shown
light: B1 light
notes: HuAM4G7 IgG1 Fc variant
B16: G236W (antibody, human IgG1, kappa)
heavy: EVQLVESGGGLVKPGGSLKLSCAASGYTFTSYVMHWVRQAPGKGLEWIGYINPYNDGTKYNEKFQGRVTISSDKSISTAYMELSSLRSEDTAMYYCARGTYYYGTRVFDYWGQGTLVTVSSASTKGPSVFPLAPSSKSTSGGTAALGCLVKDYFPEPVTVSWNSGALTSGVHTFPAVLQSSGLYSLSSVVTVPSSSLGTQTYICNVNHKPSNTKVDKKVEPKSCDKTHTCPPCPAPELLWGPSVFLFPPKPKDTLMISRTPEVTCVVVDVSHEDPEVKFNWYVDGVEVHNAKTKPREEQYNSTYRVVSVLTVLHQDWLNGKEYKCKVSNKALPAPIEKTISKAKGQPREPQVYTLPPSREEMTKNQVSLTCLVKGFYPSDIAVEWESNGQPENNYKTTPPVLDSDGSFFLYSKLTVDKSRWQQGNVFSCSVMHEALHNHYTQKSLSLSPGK
light: B1 light
notes: HuAM4G7 IgG1 Fc variant
B17: L235P (antibody, human IgG1, kappa)
heavy: not shown
light: B1 light
notes: HuAM4G7 IgG1 Fc variant
B18: G237Y (antibody, human IgG1, kappa)
heavy: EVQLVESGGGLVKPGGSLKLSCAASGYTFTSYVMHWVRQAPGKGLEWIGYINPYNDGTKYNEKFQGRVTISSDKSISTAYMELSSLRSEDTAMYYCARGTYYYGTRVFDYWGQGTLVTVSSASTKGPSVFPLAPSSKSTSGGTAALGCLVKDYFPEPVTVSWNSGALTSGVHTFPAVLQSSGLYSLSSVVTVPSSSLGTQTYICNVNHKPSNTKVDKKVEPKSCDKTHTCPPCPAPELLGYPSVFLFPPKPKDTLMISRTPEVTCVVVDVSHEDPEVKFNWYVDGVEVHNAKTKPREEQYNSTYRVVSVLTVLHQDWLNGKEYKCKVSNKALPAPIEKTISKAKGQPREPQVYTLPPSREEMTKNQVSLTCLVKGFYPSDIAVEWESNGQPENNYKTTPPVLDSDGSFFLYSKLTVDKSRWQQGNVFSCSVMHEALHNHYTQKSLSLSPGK
light: B1 light
notes: HuAM4G7 IgG1 Fc variant
B19: G236H (antibody, human IgG1, kappa)
heavy: not shown
light: B1 light
notes: HuAM4G7 IgG1 Fc variant
B20: S267D/H268D (antibody, human IgG1, kappa)
heavy: not shown
light: B1 light
notes: HuAM4G7 IgG1 Fc variant
B21: S239D/H268D/L328Y/I332E (antibody, human IgG1, kappa)
heavy: EVQLVESGGGLVKPGGSLKLSCAASGYTFTSYVMHWVRQAPGKGLEWIGYINPYNDGTKYNEKFQGRVTISSDKSISTAYMELSSLRSEDTAMYYCARGTYYYGTRVFDYWGQGTLVTVSSASTKGPSVFPLAPSSKSTSGGTAALGCLVKDYFPEPVTVSWNSGALTSGVHTFPAVLQSSGLYSLSSVVTVPSSSLGTQTYICNVNHKPSNTKVDKKVEPKSCDKTHTCPPCPAPELLGGPDVFLFPPKPKDTLMISRTPEVTCVVVDVSDEDPEVKFNWYVDGVEVHNAKTKPREEQYNSTYRVVSVLTVLHQDWLNGKEYKCKVSNKAYPAPEEKTISKAKGQPREPQVYTLPPSREEMTKNQVSLTCLVKGFYPSDIAVEWESNGQPENNYKTTPPVLDSDGSFFLYSKLTVDKSRWQQGNVFSCSVMHEALHNHYTQKSLSLSPGK
light: B1 light
notes: HuAM4G7 IgG1 Fc variant
B22: S239D/K326D/L328Y (antibody, human IgG1, kappa)
heavy: B21 heavy with D272H, K330D, E336I
light: B1 light
notes: HuAM4G7 IgG1 Fc variant
B23: S267E/H268D (antibody, human IgG1, kappa)
heavy: not shown
light: B1 light
notes: HuAM4G7 IgG1 Fc variant
B24: S267A/H268D/L328Y (antibody, human IgG1, kappa)
heavy: B21 heavy with D243S, S271A, E336I
light: B1 light
notes: HuAM4G7 IgG1 Fc variant
B25: S267D/A327D (antibody, human IgG1, kappa)
heavy: not shown
light: B1 light
notes: HuAM4G7 IgG1 Fc variant
B26: S239D/H268D/L328W/I332E (antibody, human IgG1, kappa)
heavy: B21 heavy with Y332W
light: B1 light
notes: HuAM4G7 IgG1 Fc variant
B27: S267A/L328Y/I332E (antibody, human IgG1, kappa)
heavy: B21 heavy with D243S, S271A, D272H
light: B1 light
notes: HuAM4G7 IgG1 Fc variant
B28: S239D/S267D (antibody, human IgG1, kappa)
heavy: not shown
light: B1 light
notes: HuAM4G7 IgG1 Fc variant
B29: S239D/S267E/I332E (antibody, human IgG1, kappa)
heavy: B21 heavy with S271E, D272H, Y332L
light: B1 light
notes: HuAM4G7 IgG1 Fc variant
B30: S239D/L328Y/I332E (antibody, human IgG1, kappa)
heavy: B21 heavy with D272H
light: B1 light
notes: HuAM4G7 IgG1 Fc variant
B31: S267E/L328Q (antibody, human IgG1, kappa)
heavy: not shown
light: B1 light
notes: HuAM4G7 IgG1 Fc variant
B32: S267D/A327E (antibody, human IgG1, kappa)
heavy: not shown
light: B1 light
notes: HuAM4G7 IgG1 Fc variant
B33: S239D/H268D/L328Y (antibody, human IgG1, kappa)
heavy: B21 heavy with E336I
light: B1 light
notes: HuAM4G7 IgG1 Fc variant
B34: S239D/H268E/L328Y (antibody, human IgG1, kappa)
heavy: B21 heavy with D272E, E336I
light: B1 light
notes: HuAM4G7 IgG1 Fc variant
B35: S239D/L328Y (antibody, human IgG1, kappa)
heavy: not shown
light: B1 light
notes: HuAM4G7 IgG1 Fc variant
B36: S239D/S267A/L328Y (antibody, human IgG1, kappa)
heavy: B21 heavy with S271A, D272H, E336I
light: B1 light
notes: HuAM4G7 IgG1 Fc variant
B37: S239D/L328F/I332E (antibody, human IgG1, kappa)
heavy: B21 heavy with D272H, Y332F
light: B1 light
notes: HuAM4G7 IgG1 Fc variant
B38: S267D/H268E (antibody, human IgG1, kappa)
heavy: not shown
light: B1 light
notes: HuAM4G7 IgG1 Fc variant

Biological target: T1, FcγRIIaR
Experiment: SPR (Biacore)

Row | Fold FcγRIIaR [fold] | Binder
1 | 0.319 | B1
2 | 0.0356 | B2
3 | 0.0859 | B3
4 | 1.58 | B4
5 | 1.79 | B5
6 | 0.0859 | B6
7 | 0.307 | B7
8 | 0.106 | B8
9 | 0.0859 | B9
10 | 36.5 | B10
11 | 0.0859 | B11
12 | 0.081 | B12
13 | 0.0342 | B13
14 | 0.634 | B14
15 | 2.04 | B15
16 | 0.0859 | B16
17 | 0.122 | B17
18 | 0.902 | B18
19 | 0.135 | B19

Biological target: T2, human FcγRIIb receptor protein (R&D …)
Experiment: SPR (Biacore)

Row | Fold FcγRIIb [fold] | binding result | Binder
20 | 0.353 |  | B1
21 | 14.2 |  | B20
22 | 54.1 |  | B21
23 | 0.147 |  | B3
24 | 13 |  | B22
25 | 33.3 |  | B23
26 | 10.7 |  | B24
27 | 1.17 |  | B5
28 | 6.89 |  | B25
29 | 0.147 |  | B6
30 | 27.8 |  | B26
31 | 0.417 |  | B7
32 | 13.5 |  | B27
33 | 22.3 |  | B28
34 | 124 |  | B29
35 | 7.41 |  | B30
36 | 0.147 |  | B9

Row | Fold FcγRIIb [fold] | binding result | Binder
37 | 12.1 |  | B31
38 | 12.1 |  | B32
39 | 11.4 |  | B10
40 | 0.147 |  | B11
41 | 0.147 |  | B12
42 | 24.4 |  | B33
43 | 0.147 |  | B13
44 | 0.011 |  | B14
45 | 21.7 |  | B34
46 | 5.56 |  | B35
47 | 0.147 |  | B16
48 | 19.8 |  | B36
49 | 8.34 |  | B37
50 | 17.8 |  | B38
51 | 0.33 |  | B18
52 |  | no binding | B19
